Laboratory results published in patent publication US20220396614A1.
pKd: −log10 of the molar value.

Molecular target: NANP 5.5-mer peptide, NP(NANP)5, representative of the PfCSP central repeat (Plasmodium falciparum (NF54))
Assay: SPR (FIG. 5E)

Substance	pKd	fold lower affinity than mAb 4493
mAb 317 (antibody)	> 10.00	–
mAb CIS43 (antibody)	–	100 fold
